Source: PMC3293223 (Biochemistry, 2012)

B1: N-terminally truncated APE1 including only Cys 99 with all other Cys residues mutated to Ala (40APE1 C99) (domain or fragment, human, UniProt P27695 41-318, looked up)
chain: GPALYEDPPDQKTSPSGKPATLKIASWNVDGLRAWIKKKGLDWVKEEAPDILALQETKCSENKLPAELQELPGLSHQYWSAPSDKEGYSGVGLLSRQAPLKVSYGIGDEEHDQEGRVIVAEFDSFVLVTAYVPNAGRGLVRLEYRQRWDEAFRKFLKGLASRKPLVLAGDLNVAHEEIDLRNPKGNKKNAGFTPQERQGFGELLQAVPLADSFRHLYPNTPYAYTFWTYMMNARSKNVGWRLDYFLLSHSLLPALADSKIRSKALGSDHAPITLYLAL
modifications: Cys 99 oxidised with 1 mM diamide before the reaction with TRXC32

Key:
[1] = biological target: thioredoxin mutant including only C32 (TRXC32) (UniProt P10599); test: cross-linking
[2] = biological target: the molecule itself; test: SEC

Molecule | stoichiometry N [1] | binding result [2]
thioredoxin mutant including only C32 (TRXC32) (from UniProt P10599 1-105) (enzyme) | 2 | –
B1 | – | binds
